Source: PMC8360603

Target: DDB1/DCAF1 C-terminal domain complex (UniProt Q16531)
UniProt Q16531, sequence (Q16531 whole entry, chain 1 of 2, the tested form may be a part): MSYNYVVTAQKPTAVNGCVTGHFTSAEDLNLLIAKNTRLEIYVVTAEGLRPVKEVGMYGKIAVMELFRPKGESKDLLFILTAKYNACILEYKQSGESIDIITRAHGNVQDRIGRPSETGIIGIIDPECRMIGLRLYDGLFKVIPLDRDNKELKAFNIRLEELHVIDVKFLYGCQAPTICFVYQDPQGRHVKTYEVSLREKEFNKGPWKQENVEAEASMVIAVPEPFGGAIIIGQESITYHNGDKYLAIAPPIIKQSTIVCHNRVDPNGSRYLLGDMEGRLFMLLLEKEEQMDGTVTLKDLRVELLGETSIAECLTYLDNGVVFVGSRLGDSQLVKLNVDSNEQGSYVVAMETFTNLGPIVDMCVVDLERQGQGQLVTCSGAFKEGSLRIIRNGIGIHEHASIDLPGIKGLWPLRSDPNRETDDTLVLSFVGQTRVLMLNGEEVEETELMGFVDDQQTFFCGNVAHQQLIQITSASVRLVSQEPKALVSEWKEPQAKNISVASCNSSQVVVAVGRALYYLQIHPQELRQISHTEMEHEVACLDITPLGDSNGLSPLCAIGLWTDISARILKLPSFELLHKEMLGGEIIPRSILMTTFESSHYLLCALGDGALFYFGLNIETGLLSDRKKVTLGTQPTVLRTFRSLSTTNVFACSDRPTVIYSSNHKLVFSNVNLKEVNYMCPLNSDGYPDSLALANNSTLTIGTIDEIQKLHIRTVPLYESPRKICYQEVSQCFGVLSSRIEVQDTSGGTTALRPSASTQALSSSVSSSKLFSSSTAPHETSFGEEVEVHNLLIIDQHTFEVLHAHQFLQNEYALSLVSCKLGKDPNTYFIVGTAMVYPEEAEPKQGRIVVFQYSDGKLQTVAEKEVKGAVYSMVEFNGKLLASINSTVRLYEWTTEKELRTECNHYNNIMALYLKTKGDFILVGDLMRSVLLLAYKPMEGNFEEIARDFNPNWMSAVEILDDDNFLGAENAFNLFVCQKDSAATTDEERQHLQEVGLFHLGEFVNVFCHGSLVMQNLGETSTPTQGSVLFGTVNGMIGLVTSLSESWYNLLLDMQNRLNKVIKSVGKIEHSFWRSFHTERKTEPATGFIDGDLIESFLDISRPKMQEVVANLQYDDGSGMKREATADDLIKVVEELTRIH
UniProt Q16531, sequence (Q9Y4B6 1046-1396, chain 2 of 2, further chain): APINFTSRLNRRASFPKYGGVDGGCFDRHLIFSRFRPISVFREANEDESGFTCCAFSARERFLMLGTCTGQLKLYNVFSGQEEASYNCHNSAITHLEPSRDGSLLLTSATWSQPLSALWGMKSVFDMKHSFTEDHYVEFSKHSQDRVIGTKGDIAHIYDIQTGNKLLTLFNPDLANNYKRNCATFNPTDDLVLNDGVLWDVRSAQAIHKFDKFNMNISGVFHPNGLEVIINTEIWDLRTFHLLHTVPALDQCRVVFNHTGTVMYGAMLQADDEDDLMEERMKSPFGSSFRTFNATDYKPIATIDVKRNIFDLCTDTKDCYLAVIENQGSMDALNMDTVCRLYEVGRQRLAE

T4L-SAMHD1-CtD (domain or fragment)
in vitro ubiquitylation of T4L-SAMHD1-CtD by CRL4^DCAF1-CtD (UBA1, UBCH5C, ubiquitin, ATP) with HisSUMO-T4L-Vprmus (1-92), 0-15 min, SDS-PAGE; loss of the unmodified band: > 90%
